The values below come from the DeepSol protein solubility set.

The data set is described as follows: soluble on expression in E. coli; label from the status in PepcDB or PDB records.
Turning to “MSAAPGTISPPARELKTSAICGYLHRIEVRSIGLITRRRYWFALCDSTPYLYWYKDSDDIKCIGRVSLSGAAFTYDPREKGRFEIHSNNEVIALECSSDKQRNEWMKALQSTRKRSWKATKSKSDSSLDISSLTGRNSSSVLEECSSPSPVPPPRSPKPKKRTQFLTEEETDAETSSDVPHSSEETAEVVEDTDNTKIPAEGSATEWYLNPNGQLNERSLQMPKTIESPETVLKRLADQSIEAPFRAIRRNLSTWSRSRQNTSDEPVVGSRKGTVSSVDLTPEEKVIELSDKVSSLEEVVDSLRAALLLAQRNNEALQKIEDMGDNKEEMREYILEKERQVTELHISNSMNARRVRDLEDQNVRLEDTINDLQQSVEAFRESLRTKEELILRMCEEENREDLLGSISERSSNIPADANGLVSDVEVPEGILVDVSSVDCEEATRKVLDEENVRDIGELQDLVEGYRTQNQFLNAEIVQLHAITQSLEDREKKLIRQNFDLEACYYQLKSRYLMVLNHFKSPTKPGKIMEPGVLKELLEESARTPRESQQNLTDQLGFYKKDDFSESDDLLDTATFYMKKAGDVVEATKLEQSEEYMKWLQSWDAFLVNNTVSRQTAIMSSPDLKTLIRTGVPPAYRGRVWKIIVTHWVKDKQAELGNGYYQSMLRKAGTKKQDGSYDAAIKQIDLDLARTLPTNKLFDEPDSANIEKLRNVLYAFRYHNSHVGYCQGLNRLAAIALLNLDEQDSFWFLVACVEHLQPEGYYTSSLIGAVADQKVLRDLVAEKLPKLAAHLRALEVDLSLFALSWFLTCFVDVLPHSIYLTIFDAFLYEGNKVLFRFALALFKICEPHVLQCKTIGTVHQCLSKAQEHIIDFKSLAQVAFNELNPFPQKTIETKRQLYLTQLKDTGHCM”, the “soluble on expression in E. coli” value was “not soluble”.
Regarding “MAVRKLTTGKWLCECYPAGRSGRRVRKQFATKGEALAFERHTMEETEAKPWLGESVDRRTLKDVVELWFKLHGKSLTAGQHVYDKLLLMVDALGNPLATDLTSKMFAHYRDKRLTGEIYFSEKWKKGASPVTINLEQSYLSSVFSELSRLGEWSYPNPLENMRKFTIA”, the “soluble on expression in E. coli” value was “not soluble”.
In the case of “MPSSDPTQSSGFAGLRSTSWPVLGILSFGEELSGYDLKKWASYSVRFFYWSPSFSQVYSELKKLEDLGYVTSRTVVDDEARVKPKRLYKITDAGMAVMRSWAREAPIDPPVLKHGVMLRMWLGHLTEPEQLKDALKEHISYVEGMSRQAALDARDSDVEPTWAFAHMVNKWSERYYAAESELAKQMLADIDEAVERMHGEGTPEHPGVPKPTASHSIRRSREAQKEYQAAMKAAQDADDEAERED”, the “soluble on expression in E. coli” value is on record as “not soluble”.
To “MAFPRTLAILAAAAALVVACSHGGTPTGSSTTSGASPATPVAVPVPRSCAEPAGIPALLSPRDKLAQLLVVGVRDAADAQAVVTNYHVGGILIGSDTDLTIFDGALAEIVAGGGPLPLAVSVDEEGGRVSRLRSLIGGTGPSARELAQTRTVQQVRDLARDRGRQMRKLGITIDFAPVVDVTDAPDDTVIGDRSFGSDPATVTAYAGAYAQGLRDAGVLPVLKHFPGHGRGSGDSHNGGVTTPPLDDLVGDDLVPYRTLVTQAPVGVMVGHLQVPGLTGSEPASLSKAAVNLLRTGTGYGAPPFDGPVFSDDLSGMAAISDRFGVSEAVLRTLQAGADIALWVTTKEVPAVLDRLEQALRAGELPMSAVDRSVVRVATMKGPNPGCGR” belongs “not soluble”; to “MSDSHHKPVWDRTHHAKMATGIGDPQCFKGMAGKSKFNVGDRVRIKDLPDLFYTRTMTYTRGATGTIVRLVYESPAAEDEAFGNEENVEWFYSIVFAQKDLWPEYSDTFANDTLETEIPERYLEKA”, “soluble”.
As to “MAMVIPARNQMASQFLELPKRTSSLMAPTMVLQGHGGEIYTSQFSSDGSFLASAGYDQQIFLWNVFGECENFAVLKGHKGAIMEVKFNADSSHLVSAGTDKTVRVWDMETGSCIRNFKSHTDIVNSVDVNRRGPQMICSASDDGTVMVHDMRSKEAAKKFICKYQQTAVTFNDAADNVICGGIDNQIKVWDMLRNDVRYVLSGHRDTITSLSVSHNGNFLLSNSMDCSLMSWDIRPFVPAQRLVARYQGASHNFEKNLLKCGWSPRDNYITAGSADRFVYVWNAKSRACVYKLPGHLGSVNCTALHPTQQILLSAGSDKTIFLGELDLEDY”, the “soluble on expression in E. coli” value was “not soluble”.
Next, “MGSDKIHHHHHHQTKAEKNGWRLGMQSYSFHLFPLTEALDKTQELGLKYIEIYPGHKLGGKWGDKVFDFNLDAQTQKEIKELAASKGIKIVGTGVYVAEKSSDWEKMFKFAKAMDLEFITCEPALSDWDLVEKLSKQYNIKISVHNHPQPSDYWKPENLLKAISGRSQSLGSCSDVGHWRREGLNQIDCLKQLKGRIISLHFKDIAPKKAGENEQHDVIWGTGILDVKGMLKELKSQNFKGVFSIEYEYNWENSVPDIKECIQYFNKTANEIL”: “not soluble”; “MMEVLTGPERRRRWSVEEKLALVRESFEPGKTVSMVARQHGVNPNQVFHWRKLYQDGSLSAVSAGEEVVPASELAEALKLVRVLQRMLGKKTMENEILREAVEYGRAKKWIARSPSLPGDDQLEHHHHHH”: “not soluble”.
Next, “MGSDKIHHHHHHMKIAIVGSGNGAVTAAVDMVDKGHDVRLYCRNESISKFDVALEKGGFDFYNEGEEKFIEFTDISDDMEYVLDGADIVQVIIPSSFIEYYAKVMSKFVTNDHLIFFNIAASMGSIRFMNVLEDRHIDVHPHFAEANTLTYGTRVDFNNAKVDLSLNVRRVFFSTFDRSELNESYEKVSKIYDYLVKEESLLKTNLENGNPEVHPGPTLLNVGRIDYSEEFSLYKEGITKHTVRLLHAIEIERLNLGRKLGFELSTAKESRIQRGYLERKDEDEPLNRLFNTSPVFSQIPGPNHVENRYLTEDIAYGLVLWSSLGRVIDVPTPNIDAVIMIASTILERDFFEEGLTIEELGLDKLGLE”: “not soluble”.
Consider “GVDWQDANSLQYVVQSAETLVPDVKPVAQAESVNRVNTGGEGLGGELRDQEYAIILETLVECNGRRKEMAEKLGISPRTLRYKLAKMRDAGIDIPS”, for which the “soluble on expression in E. coli” value is listed as “not soluble”.
To “MGSDKIHHHHHHMKVTNYQGATIDPYSKGLGMVPGTSIQLTDAARLEWNLLNEDVSLPAAVLYADRVEHNLKWMQAFVAEYGVKLAPHGKTTMAPQLFRRQLETGAWGITLATAHQVRAAYHGGVSRVLMANQLVGRRNMMMVAELLSDPEFEFFCLVDSVEGVEQLGEFFKSVNKQLQVLLELGVPGGRTGVRDAAQRNAVLEAITRYPDTLKLAGVELYEGVLKEEHEVREFLQSAVAVTRELVEQERFARAPAVLSGAGSAWYDVVAEEFVKASETGKVEVVLRPGCYLTHDVGIYRKAQTDIFARNPVAKKMGEGLLPALQLWAYVQSIPEPDRAIIGLGKRDSAFDAGMPEPARHYRPGNEAPRDIAASEGWEIFGLMDQHAYLRIPAGADLKVGDMIAFDISHPCLTFDKWRQVLVVDPAYRVTEVIETFF” belongs “not soluble”; to “GSFTRFDLAIDDKKTYFSIPELLKKAQKGECISRFRKSDFNGSFDLSDGITGGTTIYFGSKKSEAYLCFYEKNYEQAEKYNIPLEELGDWNRYELRLKNERAQVAIDALLKTKDLTLIAMQIINNYVRFVDADENITREHWKTSLFWSDFIGDVGRLPLYVKPQKDFYQKSRNWLRNSCAPTMKMVLEADEHLGKTDLSDMIAEAELADKHKKMLDVYMADVADMVV”, “not soluble”; to “SLKIDTHAHIFLKKLNTVANARYKPDYDASFKDYKANLDHYDFNKGVLVQPSFLGIDNEFLLQSIEKDENIKAIVVVDENIKFDELKKLKERKACGVRLNLIGKELPNFKSMVWTQFFENLSKLKMQIEIQRDLDNNLVDIVENLIPYGCNIVIDHLARANANLTNLEDLICLKNSRIFFKISGFYRAKIDYANNEQAVKFAKKIYEILKEHFPLSNFVFGSDWPHTNFEANINFSSALVAFNEVVVSKKEQEQILGDNACALFGF”, “soluble”.
Regarding “MTQATPFQLPPLALYVHIPWCVRKCPYCDFNSHAAGPELPEEAYVDALLADLEQDLRHVHGRRLGSIFFGGGTPSLFSAKALGRLLEGVERRVGFADGIEITLEANPGTFEQVKFADYRRLGINRLSIGVQSFQADKLQALGRIHDGAEAVRAADMARQAGFDNFNLDLMHGLPGQSLDDALADLRQALALAPTHLSWYQLTMEPNTVFWSQPPELPEDDILWDIQEAGQALLDEHGYRQYETSAYARDGLRARHNLNYWSFGDFLGIGAGAHAKLSAPDGRIVRTWKTRLPKDYLNPQKAFQAGERPLEAADLPFEFMMNVLRLVDGVPAALYPQRTGQPLAAIADACAAARDAGLLADDPQHLRPSERGQLFLNDLLQHFLP”, the “soluble on expression in E. coli” value was “not soluble”.
To “MGSDKIHHHHHHMKIYLVGGAVRDSLLGLPVTEKDWVVVGATPEHLLAQGYQQVGKDFPVFLHPISRDEYALARTERKSGKGYTGFVCHAEPDVTLEQDLLRRDLTINAIARTERGDLIDPYHGRRDLDNRVLRHVSDAFSEDPLRVLRVARFAARFAHLGFQIAEETMALMQKMAHEGELAFLTPERVWKETEKALGTSSPDVYFQVLRDCGALAVLFPEIDNLYGVPAPAKWHPEIDTGIHTMMTVAMAARLSPDIDVRFATLCHDLGKGLTPPELWPRHLGHGPAGVKLVEALCQRLRVPNPIRDLAKLVAEYHDLVHTVQVLQPKTLLKLFDAIDVWRKPQRLEQLALTSEADARGRTSFEENPYPQGNYLREAFRVASQVSSASVVADGFKGIDVRNELARRRIHALADWKAQQPDVSSTS” belongs “not soluble”; to “KSDSENIKDVKLQLNYAYEIIPVDYTNCNIDYLTTHDFYIDISSYKKKNFSVDSEVESYITTKFTKNQKVNIFGLPYIFTRYDVYYIYGGVTPSVNSNSENSKIVGNLLIDGVQQKTLINPIKIDKPIFTIQEFDFKIRQYLMQTYKIYDPNSPYIKGQLEIAINGNKHESFNLYDATSSSTRSDIFKKYKDNKTINMKDFSHFDIYLWTK”, “soluble”.
With “MDCCEERGVARHKGLSQVGTPGCPRWSQAVSCRCSAYREAAVTAVQMPLTPGYGETPLPHDELAALLPEVVEVLDKPITRADVYDLEQGLQDQVFDLLMPTAVEGSLSLDELLSDHFVRDLHARMFGPV”, the “soluble on expression in E. coli” value is given as “soluble”.
Next, “MAHHHHHHMGLEDIDECLPPSLGGKGQVLKGRPVNNGDGTSGSCAKVNFGELFGFPVASSGGAVMPSASAGVGSVQAGSKTECQEPEEQWIWVSAEGQKSEASPVDNMAGRSNDPLDAFFTSHTPSLQPSSSMKREEKPFTDLLDFSKPAERVRYSDEHSLLEAFENQSKGRRADVRDDPSLEDLSHGSSNNAVRARLLKIMNYYDILGVTRDATEEQIRQRYKQKALELHPDRVGRDQTPEEVELFKVMTKANEVLCDPEERAKYDEELRCSNVGADDEAQWLFHLHLR”: “soluble”.
Next, “MATRFMTDPHAMRDMAGRFEVHAQTVEDEARRMWASAQNISGAGWSGMAEATSLDTMAQMNQAFRNIVNMLHGVRDGLVRDANNYEQQEQASQQILSS”: “not soluble”; “MGSDKIHHHHHHMTNDSIKSETEVAPRDQSAVGTIPWAIKGELILNCNCTVFCPCVVSLGKHPPTEGYCQAWAGVRIDEGHYGDADLSGLNVGLVLEIPGLMARGNWKAAAYIDERASDAAYEGLIDVFSGKARGTTGLFKVLVSEFLGAERAPVLFETEGKTRRLIVGYYIHGEVVPVGGADSDQDIVVTNTEYWMGPDITVATATKGRVRAFGRVWDFDGRSAEICQIDWKGPR”: “not soluble”; “MPDELKPHFANVQAHYDLSDDFFRLFLDPTQTYSCAYFERDDMTLQEAQIAKIDLALGKLGLQPGMTLLDVGCGWGATMMRAVEKYDVNVVGLTLSKNQANHVQQLVANSENLRSKRVLLAGWEQFDEPVDRIVSIGAFEHFGHERYDAFFSLAHRLLPADGVMLLHTITGLHPKEIHERGLPMSFTFARFLKFIVTEIFPGGRLPSIPMVQECASANGFTVTRVQSLQPHYAKTLDLWSAALQANKGQAIALQSEEVYERYMKYLTGCAEMFRIGYIDVNQFTCQK”: “soluble”.
